Ends that are not written are not given here.

These results are taken from US8877206B2, “Stimulation of an immune response by cationic lipids” (PDS Biotechnology Corporation, priority 2007, dated 2014).

Series [1] in a line: Peptide entrapment efficiency in DOTAP liposomes (LavaPep). It counts as physicochemical. Conditions: molar ratio lipopeptide: DOTAP = 1:40, mean±SD (n=3). How it is done: Cationic lipid/antigen complexes were prepared as described above. Peptide encapsulation efficiency was determined by the percentage of the liposome-bound peptide using LavaPep™ peptide quantification kit (commercially available from Fluorotechnics of Sydney, Australia). Since unincorporated lipopeptide aggregated and could not pass the exclusion filter, the incorporated lipopeptide was measured as the amount associated with the extruded liposomes in the presence of 1% SDS and reported as the mean±SD (n=3). For water-soluble peptide such as native E7 and KSS-E7, the unbound peptide was separated from the complex by a Microcon® centrifugal filtration device (commercially available from Millipore of Bedford, Mass.). The concentration of the unbound peptide was measured using LavaPep™ according to the manufacturer's instruction.

Series [2] has as its target T1, H-2D^b molecules on RMA-S cells (Mus musculus, UniProt P01899).
T1 construct: it caused a four-fold up-regulation of H-2D^b molecules on RMA-S cells compared to the control; endogenous in cells; host or cells: RMA-S mouse lymphoma cells
T1 sequence (P01899 25-362): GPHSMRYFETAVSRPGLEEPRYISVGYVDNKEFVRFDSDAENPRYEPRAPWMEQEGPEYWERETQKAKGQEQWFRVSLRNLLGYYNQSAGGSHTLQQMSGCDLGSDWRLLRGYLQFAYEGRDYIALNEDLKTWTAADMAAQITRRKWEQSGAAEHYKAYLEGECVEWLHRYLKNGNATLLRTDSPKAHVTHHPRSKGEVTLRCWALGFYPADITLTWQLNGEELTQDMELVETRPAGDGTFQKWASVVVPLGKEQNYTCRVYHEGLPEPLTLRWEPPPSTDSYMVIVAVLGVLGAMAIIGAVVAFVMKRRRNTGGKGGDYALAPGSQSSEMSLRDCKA
T1 sequence (P01887 21-119 partner): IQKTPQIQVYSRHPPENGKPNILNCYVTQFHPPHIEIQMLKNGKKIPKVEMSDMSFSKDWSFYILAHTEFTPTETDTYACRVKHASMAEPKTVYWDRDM
The experiment in a line: MHC class I binding on RMA-S cells, H-2D^b. It counts as cell-based. Conditions: peptide 10 μM, overnight 27° C. then 2 h 37° C.; FIG. 13.

The test system of series [3] is TC-1 tumor. Description: TC-1 HPV-positive tumor growth in treated mice. Type of series: in vivo, C57BL/6 mice. The settings on record: formulated in the DOTAP/antigen complex; FIG. 11.
The subject of series [4] is CD8+ T cells. The experiment in a line: IFN-γ producing CD8+ T cells in spleen after immunization. Type of series: in vivo, mice. Conditions: formulated in DOTAP liposomes; 5 nmol peptide; FIG. 12.
The target of series [5] is T2, H-2K^b molecules on RMA-S cells (Mus musculus, UniProt P01901).
T2 construct: endogenous in cells; host or cells: RMA-S mouse lymphoma cells
T2 sequence (P01901 22-369): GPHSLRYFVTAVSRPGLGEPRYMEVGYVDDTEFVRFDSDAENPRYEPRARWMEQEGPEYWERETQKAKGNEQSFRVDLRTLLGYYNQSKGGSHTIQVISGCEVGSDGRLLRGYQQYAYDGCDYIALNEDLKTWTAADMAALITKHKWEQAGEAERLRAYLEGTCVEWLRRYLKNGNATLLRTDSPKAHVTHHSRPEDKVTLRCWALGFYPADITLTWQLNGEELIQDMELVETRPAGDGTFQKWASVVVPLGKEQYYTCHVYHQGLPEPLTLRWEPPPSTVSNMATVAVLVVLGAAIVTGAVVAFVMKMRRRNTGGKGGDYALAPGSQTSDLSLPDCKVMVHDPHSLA
T2 sequence (P01887 21-119 partner): T1 sequence (P01887 21-119 partner)
Description: MHC class I binding on RMA-S cells, H-2K^b. It counts as cell-based. Conditions: peptide 10 μM.

Series [6] is described as follows: E7 peptide association with the liposome. It counts as physicochemical. The settings on record: 0.7 mg lipids and 0.1 mg E7 per mL (molar ratio=11:1). On the procedure:
All lipids were purchased from Avanti Polar Lipids (Alabaster Ala.). Small unilamellar DOTAP, DOEPC, and DOTMA liposomes were prepared by thin film hydration followed by extrusion. The lipid, with or without a drug, in chloroform was dried as a thin layer under a stream of nitrogen in a glass tube. The thin film was vacuum desiccated for 2-3 h and then re-hydrated in cell culture grade water (commercially available from Cambrex of Walkersville, Md.) or buffer containing E7 peptide to a final concentration of 0.7 mg lipids and 0.1 mg E7 per mL (molar ratio=11:1). The lipid dispersion was sequentially extruded through polycarbonate membranes with pore size of 0.4, 0.2 and 0.1 μm. The un-entrapped peptide was not removed. The liposomes were stored at 4° C. until use. E7 peptide association with the liposome was determined by measuring the percentage of liposome-bound peptide. In brief, unbound E7 peptide from DOTAP/E7 or DOTAP/E7/drug (MAP kinase inhibitor) complexes was separated by a Microcon® centrifugal filtrate devices (Millipore, Bedford, Mass.) and the concentration of unbound peptide was measured by Micro BC™ Protein Assay Kit (Pierce, Rockford, Ill. The efficiency of peptide association was determined as percent […] peptide. Approximately 30% of E7 peptide was associated with the liposomes.

For the substance “KSS-E7: E7 peptide RAHYNIVTF elongated with KSS (lysine-serine-serine) spacer, no lipid (not fully specified (N-terminus); also: KSS spacer added, end not given here)”, the “Entrapment efficiency (%)” value in series [1] was 26.4 ± 6.1%. Besides, the “Up-regulation of H-2D^b molecules (mean fluorescence) compared to the control” value in series [2] came to 8 fold. Moreover, the “Anti-tumor activity compared with native E7” value in series [3] is “superior anti-tumor activity”. The “Number of IFN-γ producing CD8+ cells vs native E7 in DOTAP liposomes” value in series [4] is reported as “superior result than the native E7”. Moreover, the “Up-regulation of H-2K^b molecules” value in series [5] was “No up-regulation”.
On to RAHYNIVTF [Native E7], for which the “Entrapment efficiency (%)” value is 27.1 ± 5.8% in series [1] and “about 25%” in series [1] (listed as E7). In addition, the “Up-regulation of H-2D^b molecules (mean fluorescence) compared to the control” value in series [2] is listed as “four-fold”. Also, in series [6], the “E7 peptide associated with the liposomes” value is reported as “Approximately 30%”. The “Up-regulation of H-2K^b molecules” value in series [5] is reported as “No up-regulation”.
